Experimental data reported in a protein production outcome set (Wang et al. 2014).

Experiment: label from the status in PepcDB records

Row | Sequence | protein production
1 | MAALWAAEAALTPGEVQAELASDLARTTVTTILSRLYDKGVVDRRGVAMVTTPCRTPRGSPPGACIPSSTVTLTGRPSWPASSPSSIRTTNSFCASYWRPTRDDRPLLIPLLLPFVMPLLARRALDRLAPATALWALTAAALVLAGACVTALGALVLTGLLKLPAFAALGELAHPLRTPTGYLVLPAAAIATGLLTIGAWTLAHSALRQTRAFRTARAEADRRPTAGDLCVVDSPHPDAYALPGRPHRIVVTTAMLRSLKPDERDALFAHERAHNQGATTASWSIGSAACRPGRMVSYLGACGARRAGPMRGRRGPRAIPVVCRPVPRSCRGRIVGVSLPSARW | failed
2 | MRIDVESQNINVTSLKEAPIHLSGQIQPHGVLLVLEEPGLKILQVSNNTWGILGINAENILQKKLEDLLDSFQIERIQSGLSSGNLEFINPTKIWIRKKGDDYAVFDAVFHRNTEGFLILELEPAITQENIPFLSFYHLAKASINQLQKTANLRDFCQIIVQEVRKVTDFDRVMLYKFDDDGHGSVIAEEKLDSLEPYLGLHYPESDIPKPARKLFISNSIRVIPNAQAQAIQMIPALNPVSDRPVDLTNSILRSAANCHLEYLHNMGVGASLTISLIKDNKLWGLIACHHLSAKYVSYELRKACEFLGRVIFAEISAREETEDYDYRMNLTHIQSLLVEYMSQEDNFVDGLIKHQPSLLDLTSAQGAAVCFGDHCTLIGETPKAEDLVFLVQWLKNNVEEEVFYTDSLPQVYPDAERYKNVASGLLAIPISQRNYVLWFRPEVIQTVNWGGDPNQPFEVNKLDGNVRLCPRKSFELWKETVRLTSLPWRYVEIRAALELRKAIVNIVLRQADELAQLAHDLERSNAELKKFAYVASHDLQEPLNQVANYVQLLEMRYQDQLDADANEFITFAVEGVSLMQTLIDDVLAYSKVDTQAIAFQLTEVEKALDKALGNLRQRIAETGANITHDPLPTVMAGSTQLMQLFQNLIANAIKFRSEEAPQIHIGAERLEDEWLFSVRDNGIGIDPQFSDRIFVIFQRLHTRDEYHGTGMGLAICKKIIECHRGRIWVESQLGEGATFYFTIPVGGRERERRNGRKTQNNLFS | failed
3 | MNNKITKTSIFLTISLLLITPGFSVVAVGLLTLYSSVKLIKNGLNLNKFDIIPLITLSAYFLSNLPITIIDGDTLRYLDAGIRALLCIPMYFFIKNEISKGANLDNTLCTSTILASFGALAFAFYQFFILNMPRVDGFLFSINFGYLAAALAILSFGLSFTQTRFKYYLYLSVVAATVATILTLTRGAILTLLFVFILFFIVNVRKIKFKQTLVFTLISFLLVSVSYQFSPRIQERVDFTIFEISSIASNNIHAAASSGGRLQLWYAAVEAFKHNPIWGTTYSERESLNIELFKEGKVDEWTSTVPRGHAHSQYFEAIASNGTLGILAIFAMLILPFGVFLNDYRKTGSPISQTGYLFAFGFIIFCLTEAPLQANLIGTFYGFMVAIFYAYIAAKRAKN | failed
4 | MLSKPMELLRPSKGMINVHPIQRGGILTEEARKVLLEWGDGYSMCDICLEGRVDLLDKPPVKRFKEEVAEFLGMDEVRFTAGARHAKFVAMSGFKGALVVDSLAHYTTYIAAELNGLRVYEVPNTGYPEFRIEAESYTDVFEKVKEETGDYPAVALLTHADYKYGNLADAKKVAEICRDYGIPLILNTAYTSGIMEVSGRETGCDFIVASGHKSWAATAPIGILATTFEFAERVFRVSEVRGNWSGRAFTKKEVALFGCSPVYGLPLVTLMASFPVVKERVKRWKEEVEKARWFVEEMEKIEGVMLLGERPKNHTLMNFETPSFNLIAKKHRRKGYFLYHELKERGIFGVQPGMTRNVKLNVYGLSWEEVERVAEAFKEIAEKYGLEVED | failed
5 | GSSGSSGMGNSKSGALSKEILEELQLNTKFSEEELCSWYQSFLKDCPTGRITQQQFQSIYAKFFPDTDPKAYAQHVFRSFDSNLDGTLDFKEYVIALHMTTAGKTNQKLEWAFSLYDVDGNGTISKNEVLEIVMAIFKMITPEDVKLLPDDENTPEKRAEKIWKYFGKNDDDKLTEKEFIEGTLANKEILRLIQFEPQKVKEKMKNA | not failed
6 | MGHGIEVLPDLFCYTIQIVNICFVGNPESNDFVLVDAGMPKCANEIISVAEDRFGTNSRPKAIILTHGHFDHVGGIIELIKYWDVPVYAHQMEIPFLTGQQSYPEPDSTVEGGMIAKMSPLFPNEPIDLGNSIKVLPTDGTVPHMPDFRWIHTPGHTPGHISLFREKDRTLIAGDAFVTVKQEYLYKVITQEQEISGPPRYLTTDWKAAKESVITLEKLKPLSAVTGHGIPMSGELLSTSLKTLAQEFDKIAVPDYGKYVDKKLEHHHHHH | failed
7 | MKQWADDENLPMERYKNYQMIVPAFIIKDILDGKIPETFEDSKNIKMIEASWGEESYTKGHIPTSVHVNTDIIEPPPTWMLDNDDNLTKFALDYGLTKDDTVIVSSSTPMASYRLAVILRYIGVKDVRVLNGGTNSWLSAGYELEFISNPKLEHHHHHH | failed
8 | MLDLVNQLELDSQMKQFKLVSQMTRQDVIILDEPGYLPFSQKRGALLFHLMSQLHENTSVIITTNLEFSEWGTLFTEAKMTNALLDRLIHHCHMLETGNESYRFKHRNLEHHHHHH | failed
9 | MAKLTESMTNVLEGDSMDQDVESPVAIHQPKLPKQARDDLPRHISRDRTKRKIQRYVRKDGKCNVHHGNVRETYRYLTDIFTTLVDLKWRFNLLIFVMVYTVTWLFFGMIWWLIAYIRGDMDHIEDPSWTPCVTNLNGFVSAFLFSIETETTIGYGYRVITDKCPEGIILLLIQSVLGSIVNAFMVGCMFVKISQPKKRAETLVFSTHAVISMRDGKLCLMFRVGDLRNSHIVEASIRAKLIKSKQTSEGEFIPLNQTDINVGYYTGDDRLFLVSPLIISHEINQQSPFWEISKAQLPKEELEIVVILEGMVEATGMTCQARSSYITSEILWGYRFTPVLTLEDGFYEVDYNSFHETYETSTPSLSAKELAELASRAELPLSWSVSSKLNQHAELETEEEEKNLEEQTERNGDVANLENESKV | failed
10 | VTLSSGMQALLDDKFVYLAVNQAYAEKLNLTIDQVIGKHPRDIYSKGYFESELKIYSERCLAGEIIKLEKWMRSSSGQAWFIDIEMSPYYQNDGNIYGVMVNARDIT | failed
11 | MTPIQDHPLRFALANELHARPFPISRAPCTVAYLAVKQPDAAVGRDRKADRAHLIDLLDRHGAPHPQPGATHYAGQIGRHWLKWESHTEFVTYTAFATGVSDRPFNPADFEVFPPDWLAAAPGQRVTSALLRVEEQLPEADIVAALADWFVPESLAVAHVLDRAAVAAGDFRIDPAGHMRFAVFVAPDTGERRIGRIIQRLCEIETYKAMSMLGFARVKALGPKLGELDSGLTGLMVKMTDGGHPAEDLLPQLLSTSAELETMAARSEFRLGATGAYEAIVNQRIASLREERFGGRQTFADFMLRRYEPAMRTVKSTERRLKRLSDRAIRAGDLLRTRVDVERSAQNQALLESMDRRADLALRLQHTVEGLSVVAVSYYAVSLVSAFLLPLSEWYGVDKKALIALVTLPVVGLVWLGIRRIRKKLH | failed
12 | CLVDPHTVLPSPISGPTETIRSLRRCAAAGGYGQVALLPRGQSWRDQPERLIGLQNADPSSVHLPLWGGFSLNGKGDELAPHGDLLEHGAIGLADDDAVVPLPLLERGLLLGEMGSCPVLIAPRDPNLQGDGLAREGVETLRAGWAPDPLISELLPLQQLLALQQRHPDRQLRLMNISTAAAVDLLGQADPQLKASVCWWHLLVDGSSLSSTDPGCRVRPSLGGAADRLRLRSALQSGLIQAVAVHAVPLDEEDMLLPADQRPPGLSGHHLVMPALWSALVDQGDLSIESLWELLSFGPSAFLDQP | failed
13 | MEEKVEELIDIYKQQIYSLCYKLAKTKEDAEDIFQETWIKVFSSRHQLSYVENYKKWITTICVRTFYDFYSKKKRWKDRVLDLFHKEDGGEIEFADDVNISEEFIQKVEAEMIREVIQLLNEKYKTVLVLYYYEQYSYKEMSEILNIPIGTVKYRLNYAKKQMREHLEGFVHEGR | failed
14 | MTHVNIMAGGPQACLPAAWEQLPGVWIGVDRGTLRLVRAGIHPELAVGDFDSLTLEELRLVRGHVQKLQQVPSEKDDTDTELAVKAALQASSSGDVTLVGGTGGRLDHFLSNLFLPLQPRFLADVERLHLFDVQNWVDYYSPGEHEIKPLPGYRYVAVVNLTPVADLTIVGAKYPLKPWRAGYPYAWASNEFLGKQPFTVSWTTGQVAIIYSRDRRGQKLDNLEHHHHHH | not failed
15 | MGYEGIIVVDVRDAEAYKECHIPTAISIPGNKINEDTTKRLSKEKVIITYCWGPACNGATKAAAKFAQLGFRVKELIGGIEYWRKENGEVEGTLGAKADLFWNMKKESLEHHHHHH | failed
16 | ADPFASITHLVDSAMVNKTDSIDREKTSDEPKPIEADESFDDFIYNFASDDALQRQRVVFPLPYYNGERASKIDRKYWKHDDLFAKQSYYTLLFDREEDMDLVGDTSLTSVQVEWIFVKKRMVKKYYFERIKGAWMLEAINLRPIEENENEDFVEFFGHFATDSIFQSRRIRQPLVFVTTDPDDDFSILETTLDLNQWFAFKPALPADKLSNINYGQQNDDNASHKILALKGIGNGFSNILYFQRKDSGWELYKFEDTSI | not failed
17 | MLIKSIKLTNILSFGEAAETIELRPLNVVIGPNGSGKSNLIAAIELFRALPKDAPAFFRREGGIHDWLWKGGEIPPVATIESVFDEKGPLSGLRYALRFTVVGQHFEIIEERIEEEAAEGAQTPPPYHFKDGRGALRALLANEGEIKAWSFVIPSEIDPTQSILAQRKDPHQYPELTSLGAVLPTMRCYREWTMGPQSPPRQDQKTDLRNDYLDPYGAGNLALVLQRLGNKPALKKRFLEALRLLYEGIDDYGVTIEGGTSQIFFHEGGRFTIPASRLSDGTLRYLCLLAILLDPAPPPLLCIEEPELGLHPDILPTLADLLKEASERTQVIVTTHSDGLVDAMTDRPEAVLIAEKNENGTTLTRLDGETLKPWLAKYRLGELWTRGGIGGTRWLEHHHHHH | failed
18 | MRLNQISKFAIVSVVVLVLALLLGGSAKTNLTVEEVNKALEPFFDSLSYILNYYYEADKLDINKLIDHAIDGLVKGTGDDFSYYQDPETYRENQIEMKGEYGGLGIEVTYDAEHGAIKVVAPMYGTPAWRAGLKAGDLIITIDGTPVSKMTYMEAVNNLRGEPGTSVTIEVLRDGEKLTFTIVREKIEIKMVLYSFIETEKGSIGYVRITRFGEKADSDMKNALDKIFEKGVKGLIIDVRDNPGGYLDVALKIVSMFVDKGVILKVRNGFGEEDVYESYGNSYPNVPIVLLVNEGSASASEILTGALKDLGIATVVGRKTFGKGSVQTGFPLSNGGVLFLTTAHYLTPSGKDIHKIGIEPDVLVEESVEEELHAETREQIEVDPEKDPFVKKGLEVLLEKIK | failed
19 | RAAASPITITVGDRALELSVLRPAAPKGVVVFSHGAGGTAEAYATLLEGWRQAGFLVVAPLHVDSQKHPRKTAYNLRSSFPLRIADVGAAAGWAAAAAPGLPLAYAGHSYGSLMSLMRGGALEGMIPARDPNAKAVLCFSSPGTIQGLMGPATFQTLTTPTMVLTGELDLVPGMVADWRDHLRAVEESPAGEKYAWIGKSVDHGLAHHPDNPAFAEASALSVTFLKAQLLGD | failed
20 | MEEKRLSAKKGLPPGTLVYTGKYREDFEIEVMNYSIEEFREFKTTDVESVLPFRDSSTPTWINITGIHRTDVVQRVGEFFGIHPLVLEDILNVHQRPKVEFFENYVFIVLKMFTYDKNLHELESEQVSLILTKNCVLMFQEKIGDVFDPVRERIRYNRGIIRKKRADYLLYSLIDALVDDYFVLLEKIDDEIDVLEEEVLERPEKETVQRTHQLKRNLVELRKTIWPLREVLSSLYRDVPPLIEKETVPYFRDVYDHTIQIADTVETFRDIVSGLLDVYLSSVSNKTNEVMKVLTIIATIFMPLTFIAGIYGMNFEYMPELRWKWGYPVVLAVMGVIAVIMVVYFKKKKWL | not failed
